{"source": "patent US20260209386A1", "about": "(MYTHIC THERAPEUTICS, published 2026)", "biological_target": "T1, Human PTK7/CCK4 Protein, His Tag, Acro Biosystems PT7-H52H3 (human, UniProt Q13308 31-704)", "T1 construct": "bought protein; also called Human PTK7 Protein, His Tag, Acro Biosystems; not shown: His tag", "T1 sequence": "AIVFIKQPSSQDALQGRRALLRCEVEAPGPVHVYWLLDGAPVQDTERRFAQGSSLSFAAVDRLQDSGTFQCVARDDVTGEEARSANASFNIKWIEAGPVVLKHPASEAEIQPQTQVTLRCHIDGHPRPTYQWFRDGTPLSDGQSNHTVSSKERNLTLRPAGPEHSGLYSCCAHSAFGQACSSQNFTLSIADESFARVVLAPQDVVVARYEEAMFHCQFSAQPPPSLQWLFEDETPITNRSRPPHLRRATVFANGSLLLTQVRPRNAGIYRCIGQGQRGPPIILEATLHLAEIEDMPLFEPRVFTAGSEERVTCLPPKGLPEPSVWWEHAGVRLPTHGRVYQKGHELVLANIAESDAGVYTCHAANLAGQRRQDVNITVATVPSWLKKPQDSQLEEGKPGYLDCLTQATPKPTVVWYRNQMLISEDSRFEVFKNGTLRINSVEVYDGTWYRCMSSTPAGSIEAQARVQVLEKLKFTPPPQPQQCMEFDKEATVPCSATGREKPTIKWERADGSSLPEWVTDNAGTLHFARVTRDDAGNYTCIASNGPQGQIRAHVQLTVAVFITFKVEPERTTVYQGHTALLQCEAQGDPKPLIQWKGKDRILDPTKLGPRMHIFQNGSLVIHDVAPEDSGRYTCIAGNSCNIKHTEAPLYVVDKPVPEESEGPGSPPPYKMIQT", "assay": "BLI, antibody on anti-human Fc sensor, 50 nM PTK7", "data": [{"binder": "MYT11182 (antibody, V domains shown, IgG) VH: EVQLVESGGGLVQPGGSLRLSCTASGIHLSSYVMGWVRQAPGKGLEWVGYIYGGGGTYYATWARGRFTISRDTSKNTVYLQMNSLRAEDTAVYFCARAAADFYFNLWGQGTLVTVSS VL: EIVMTQSPSTLSASVGDRVIITCQASQSISSYLAWYQQKPGKAPKLLIYDISDLASGVPSRFSGSGSGAEFTLTISSLQPDDFATYYCQSYYWISNSGAAFGQGTKLTVL", "values": [{"measurement": "binding result", "value": "binds"}]}, {"binder": "MYT11196 (antibody, V domains shown, IgG) VH: EVQLVESGGGLVQPGGSLRLSCTASGIDLSSYVMGWVRQAPGKGLEWVGYIYGGGHTYYATWARGRFTISRDTSKNTVYLQMNSLRAEDTAVYFCARAAADFYFNLWGQGTLVTVSS VL: EIVMTQSPSTLSASVGDRVIITCQASQSISSYLAWYQQKPGKAPKLLIYDISDLASGVPSRFSGSGSGAEFTLTISSLQPDDFATYYCQSYYWISNSGAAFGQGTKLTVL", "values": [{"measurement": "binding result", "value": "binds"}]}, {"binder": "MYT11229 (antibody, V domains shown, IgG) VH: EVQLVESGGGLVQPGGSLRLSCTASGIDLSSYVMGWVRQAPGKGLEWVGYIYGGGGTYYATWARGRFTISRDTSKNTVYLQMNSLRAEDTAVYFCARAAADFYFNLWGQGTLVTVSS VL: EIVMTQSPSTLSASVGDRVIITCQASQSISSYHAWYQQKPGKAPKLLIYDISDLASGVPSRFSGSGSGAEFTLTISSLQPDDFATYYCQSYYWISNSGAAFGQGTKLTVL", "values": [{"measurement": "binding result", "value": "binds"}]}, {"binder": "MYT11192 (antibody, V domains shown, IgG) VH: EVQLVESGGGLVQPGGSLRLSCTASGIDLSSYVMGWVRQAPGKGLEWVGYIHGGGGTYYATWARGRFTISRDTSKNTVYLQMNSLRAEDTAVYFCARAAADFYFNLWGQGTLVTVSS VL: EIVMTQSPSTLSASVGDRVIITCQASQSISSYLAWYQQKPGKAPKLLIYDISDLASGVPSRFSGSGSGAEFTLTISSLQPDDFATYYCQSYYWISNSGAAFGQGTKLTVL", "values": [{"measurement": "binding result", "value": "binds"}]}, {"binder": "MYT11193 (antibody, V domains shown, IgG) VH: EVQLVESGGGLVQPGGSLRLSCTASGIDLSSYVMGWVRQAPGKGLEWVGYIYHGGGTYYATWARGRFTISRDTSKNTVYLQMNSLRAEDTAVYFCARAAADFYFNLWGQGTLVTVSS VL: EIVMTQSPSTLSASVGDRVIITCQASQSISSYLAWYQQKPGKAPKLLIYDISDLASGVPSRFSGSGSGAEFTLTISSLQPDDFATYYCQSYYWISNSGAAFGQGTKLTVL", "values": [{"measurement": "binding result", "value": "binds"}]}, {"binder": "MYT11238 (antibody, V domains shown, IgG) VH: EVQLVESGGGLVQPGGSLRLSCTASGIDLSSYVMGWVRQAPGKGLEWVGYIYGGGGTYYATWARGRFTISRDTSKNTVYLQMNSLRAEDTAVYFCARAAADFYFNLWGQGTLVTVSS VL: EIVMTQSPSTLSASVGDRVIITCQASQSISSYLAWYQQKPGKAPKLLIYDISDLASGVPSRFSGSGSGAEFTLTISSLQPDDFATYYCHSYYWISNSGAAFGQGTKLTVL", "values": [{"measurement": "binding result", "value": "binds"}]}, {"binder": "MYT11194 (antibody, V domains shown, IgG) VH: EVQLVESGGGLVQPGGSLRLSCTASGIDLSSYVMGWVRQAPGKGLEWVGYIYGHGGTYYATWARGRFTISRDTSKNTVYLQMNSLRAEDTAVYFCARAAADFYFNLWGQGTLVTVSS VL: EIVMTQSPSTLSASVGDRVIITCQASQSISSYLAWYQQKPGKAPKLLIYDISDLASGVPSRFSGSGSGAEFTLTISSLQPDDFATYYCQSYYWISNSGAAFGQGTKLTVL", "values": [{"measurement": "binding result", "value": "binds"}]}, {"binder": "MYT11244 (antibody, V domains shown, IgG) VH: EVQLVESGGGLVQPGGSLRLSCTASGIDLSSYVMGWVRQAPGKGLEWVGYIYGGGGTYYATWARGRFTISRDTSKNTVYLQMNSLRAEDTAVYFCARAAADFYFNLWGQGTLVTVSS VL: EIVMTQSPSTLSASVGDRVIITCQASQSISSYLAWYQQKPGKAPKLLIYDISDLASGVPSRFSGSGSGAEFTLTISSLQPDDFATYYCQSYYWIHNSGAAFGQGTKLTVL", "values": [{"measurement": "binding result", "value": "binds"}]}, {"binder": "MYT11184 (antibody, V domains shown, IgG) VH: EVQLVESGGGLVQPGGSLRLSCTASGIDLHSYVMGWVRQAPGKGLEWVGYIYGGGGTYYATWARGRFTISRDTSKNTVYLQMNSLRAEDTAVYFCARAAADFYFNLWGQGTLVTVSS VL: EIVMTQSPSTLSASVGDRVIITCQASQSISSYLAWYQQKPGKAPKLLIYDISDLASGVPSRFSGSGSGAEFTLTISSLQPDDFATYYCQSYYWISNSGAAFGQGTKLTVL", "values": [{"measurement": "binding result", "value": "binds"}]}, {"binder": "MYT11195 (antibody, V domains shown, IgG) VH: EVQLVESGGGLVQPGGSLRLSCTASGIDLSSYVMGWVRQAPGKGLEWVGYIYGGHGTYYATWARGRFTISRDTSKNTVYLQMNSLRAEDTAVYFCARAAADFYFNLWGQGTLVTVSS VL: EIVMTQSPSTLSASVGDRVIITCQASQSISSYLAWYQQKPGKAPKLLIYDISDLASGVPSRFSGSGSGAEFTLTISSLQPDDFATYYCQSYYWISNSGAAFGQGTKLTVL", "values": [{"measurement": "binding result", "value": "binds"}]}, {"binder": "MYT11197 (antibody, V domains shown, IgG) VH: EVQLVESGGGLVQPGGSLRLSCTASGIDLSSYVMGWVRQAPGKGLEWVGYIYGGGGHYYATWARGRFTISRDTSKNTVYLQMNSLRAEDTAVYFCARAAADFYFNLWGQGTLVTVSS VL: EIVMTQSPSTLSASVGDRVIITCQASQSISSYLAWYQQKPGKAPKLLIYDISDLASGVPSRFSGSGSGAEFTLTISSLQPDDFATYYCQSYYWISNSGAAFGQGTKLTVL", "values": [{"measurement": "binding result", "value": "binds"}]}, {"binder": "MYT11224 (antibody, V domains shown, IgG) VH: EVQLVESGGGLVQPGGSLRLSCTASGIDLSSYVMGWVRQAPGKGLEWVGYIYGGGGTYYATWARGRFTISRDTSKNTVYLQMNSLRAEDTAVYFCARAAADFYFNLWGQGTLVTVSS VL: EIVMTQSPSTLSASVGDRVIITCQASQHISSYLAWYQQKPGKAPKLLIYDISDLASGVPSRFSGSGSGAEFTLTISSLQPDDFATYYCQSYYWISNSGAAFGQGTKLTVL", "values": [{"measurement": "binding result", "value": "binds"}]}, {"binder": "MYT11210 (antibody, V domains shown, IgG) VH: EVQLVESGGGLVQPGGSLRLSCTASGIDLSSYVMGWVRQAPGKGLEWVGYIYGGGGTYYATWARGRFTISRDTSKNTVYLQMNSLRAEDTAVYFCARAAHDFYFNLWGQGTLVTVSS VL: EIVMTQSPSTLSASVGDRVIITCQASQSISSYLAWYQQKPGKAPKLLIYDISDLASGVPSRFSGSGSGAEFTLTISSLQPDDFATYYCQSYYWISNSGAAFGQGTKLTVL", "values": [{"measurement": "binding result", "value": "binds"}]}, {"binder": "MYT11225 (antibody, V domains shown, IgG) VH: EVQLVESGGGLVQPGGSLRLSCTASGIDLSSYVMGWVRQAPGKGLEWVGYIYGGGGTYYATWARGRFTISRDTSKNTVYLQMNSLRAEDTAVYFCARAAADFYFNLWGQGTLVTVSS VL: EIVMTQSPSTLSASVGDRVIITCQASQSHSSYLAWYQQKPGKAPKLLIYDISDLASGVPSRFSGSGSGAEFTLTISSLQPDDFATYYCQSYYWISNSGAAFGQGTKLTVL", "values": [{"measurement": "binding result", "value": "binds"}]}, {"binder": "MYT11236 (antibody, V domains shown, IgG) VH: EVQLVESGGGLVQPGGSLRLSCTASGIDLSSYVMGWVRQAPGKGLEWVGYIYGGGGTYYATWARGRFTISRDTSKNTVYLQMNSLRAEDTAVYFCARAAADFYFNLWGQGTLVTVSS VL: EIVMTQSPSTLSASVGDRVIITCQASQSISSYLAWYQQKPGKAPKLLIYDISDLHSGVPSRFSGSGSGAEFTLTISSLQPDDFATYYCQSYYWISNSGAAFGQGTKLTVL", "values": [{"measurement": "binding result", "value": "binds"}]}, {"binder": "MYT11213 (antibody, V domains shown, IgG) VH: EVQLVESGGGLVQPGGSLRLSCTASGIDLSSYVMGWVRQAPGKGLEWVGYIYGGGGTYYATWARGRFTISRDTSKNTVYLQMNSLRAEDTAVYFCARAAADFHFNLWGQGTLVTVSS VL: EIVMTQSPSTLSASVGDRVIITCQASQSISSYLAWYQQKPGKAPKLLIYDISDLASGVPSRFSGSGSGAEFTLTISSLQPDDFATYYCQSYYWISNSGAAFGQGTKLTVL", "values": [{"measurement": "binding result", "value": "binds"}]}, {"binder": "MYT11221 (antibody, V domains shown, IgG) VH: EVQLVESGGGLVQPGGSLRLSCTASGIDLSSYVMGWVRQAPGKGLEWVGYIYGGGGTYYATWARGRFTISRDTSKNTVYLQMNSLRAEDTAVYFCARAAADFYFNLWGQGTLVTVSS VL: EIVMTQSPSTLSASVGDRVIITCQHSQSISSYLAWYQQKPGKAPKLLIYDISDLASGVPSRFSGSGSGAEFTLTISSLQPDDFATYYCQSYYWISNSGAAFGQGTKLTVL", "values": [{"measurement": "binding result", "value": "binds"}]}, {"binder": "MYT11240 (antibody, V domains shown, IgG) VH: EVQLVESGGGLVQPGGSLRLSCTASGIDLSSYVMGWVRQAPGKGLEWVGYIYGGGGTYYATWARGRFTISRDTSKNTVYLQMNSLRAEDTAVYFCARAAADFYFNLWGQGTLVTVSS VL: EIVMTQSPSTLSASVGDRVIITCQASQSISSYLAWYQQKPGKAPKLLIYDISDLASGVPSRFSGSGSGAEFTLTISSLQPDDFATYYCQSHYWISNSGAAFGQGTKLTVL", "values": [{"measurement": "binding result", "value": "binds"}]}, {"binder": "MYT11222 (antibody, V domains shown, IgG) VH: EVQLVESGGGLVQPGGSLRLSCTASGIDLSSYVMGWVRQAPGKGLEWVGYIYGGGGTYYATWARGRFTISRDTSKNTVYLQMNSLRAEDTAVYFCARAAADFYFNLWGQGTLVTVSS VL: EIVMTQSPSTLSASVGDRVIITCQAHQSISSYLAWYQQKPGKAPKLLIYDISDLASGVPSRFSGSGSGAEFTLTISSLQPDDFATYYCQSYYWISNSGAAFGQGTKLTVL", "values": [{"measurement": "binding result", "value": "binds"}]}]}
